According to paper PMC4810480:
pKd: −log10 of the molar value.

Biological target: human CD26 (residues 39 to 766) (human) (UniProt P27487)
Test: SPR

UniProt P27487, sequence (P27487 39-766): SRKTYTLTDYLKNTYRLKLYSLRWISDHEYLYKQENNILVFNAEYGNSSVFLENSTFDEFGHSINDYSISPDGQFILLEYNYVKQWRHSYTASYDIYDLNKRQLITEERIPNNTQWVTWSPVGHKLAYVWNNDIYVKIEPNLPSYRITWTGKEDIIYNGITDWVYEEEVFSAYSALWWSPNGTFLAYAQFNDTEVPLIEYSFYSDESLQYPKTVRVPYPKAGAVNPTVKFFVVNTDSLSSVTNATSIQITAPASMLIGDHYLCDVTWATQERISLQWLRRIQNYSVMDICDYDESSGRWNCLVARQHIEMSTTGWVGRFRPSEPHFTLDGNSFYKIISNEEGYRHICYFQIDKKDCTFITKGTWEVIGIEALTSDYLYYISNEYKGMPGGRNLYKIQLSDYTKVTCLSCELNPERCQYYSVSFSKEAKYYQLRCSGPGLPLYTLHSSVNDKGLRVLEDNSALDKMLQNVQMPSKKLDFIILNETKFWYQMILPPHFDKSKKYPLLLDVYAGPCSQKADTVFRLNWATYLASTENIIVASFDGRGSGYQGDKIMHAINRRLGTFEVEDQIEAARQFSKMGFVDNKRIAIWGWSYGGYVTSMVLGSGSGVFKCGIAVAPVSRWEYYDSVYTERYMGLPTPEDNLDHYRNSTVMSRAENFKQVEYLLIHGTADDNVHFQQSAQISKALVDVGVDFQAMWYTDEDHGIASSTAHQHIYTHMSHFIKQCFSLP

MERS-CoV spike receptor-binding domain (RBD), wild type (from UniProt K9N5Q8 367-606) (domain or fragment)
pKd: 7.19
koff: 0.000936 s⁻¹
kon: 14500 M⁻¹ s⁻¹
